According to paper PMC5096884:

Target: Not1-3HA (UniProt P25655)
Experiment: co-immunoprecipitation (TAP pull-down on IgG-coupled magnetic beads), Western blot quantification
Conditions: cells in exponential growth phase; n=5 biological replicates; parent: est. 1.0; read off a plot

Chain of UniProt P25655 (P25655 whole entry): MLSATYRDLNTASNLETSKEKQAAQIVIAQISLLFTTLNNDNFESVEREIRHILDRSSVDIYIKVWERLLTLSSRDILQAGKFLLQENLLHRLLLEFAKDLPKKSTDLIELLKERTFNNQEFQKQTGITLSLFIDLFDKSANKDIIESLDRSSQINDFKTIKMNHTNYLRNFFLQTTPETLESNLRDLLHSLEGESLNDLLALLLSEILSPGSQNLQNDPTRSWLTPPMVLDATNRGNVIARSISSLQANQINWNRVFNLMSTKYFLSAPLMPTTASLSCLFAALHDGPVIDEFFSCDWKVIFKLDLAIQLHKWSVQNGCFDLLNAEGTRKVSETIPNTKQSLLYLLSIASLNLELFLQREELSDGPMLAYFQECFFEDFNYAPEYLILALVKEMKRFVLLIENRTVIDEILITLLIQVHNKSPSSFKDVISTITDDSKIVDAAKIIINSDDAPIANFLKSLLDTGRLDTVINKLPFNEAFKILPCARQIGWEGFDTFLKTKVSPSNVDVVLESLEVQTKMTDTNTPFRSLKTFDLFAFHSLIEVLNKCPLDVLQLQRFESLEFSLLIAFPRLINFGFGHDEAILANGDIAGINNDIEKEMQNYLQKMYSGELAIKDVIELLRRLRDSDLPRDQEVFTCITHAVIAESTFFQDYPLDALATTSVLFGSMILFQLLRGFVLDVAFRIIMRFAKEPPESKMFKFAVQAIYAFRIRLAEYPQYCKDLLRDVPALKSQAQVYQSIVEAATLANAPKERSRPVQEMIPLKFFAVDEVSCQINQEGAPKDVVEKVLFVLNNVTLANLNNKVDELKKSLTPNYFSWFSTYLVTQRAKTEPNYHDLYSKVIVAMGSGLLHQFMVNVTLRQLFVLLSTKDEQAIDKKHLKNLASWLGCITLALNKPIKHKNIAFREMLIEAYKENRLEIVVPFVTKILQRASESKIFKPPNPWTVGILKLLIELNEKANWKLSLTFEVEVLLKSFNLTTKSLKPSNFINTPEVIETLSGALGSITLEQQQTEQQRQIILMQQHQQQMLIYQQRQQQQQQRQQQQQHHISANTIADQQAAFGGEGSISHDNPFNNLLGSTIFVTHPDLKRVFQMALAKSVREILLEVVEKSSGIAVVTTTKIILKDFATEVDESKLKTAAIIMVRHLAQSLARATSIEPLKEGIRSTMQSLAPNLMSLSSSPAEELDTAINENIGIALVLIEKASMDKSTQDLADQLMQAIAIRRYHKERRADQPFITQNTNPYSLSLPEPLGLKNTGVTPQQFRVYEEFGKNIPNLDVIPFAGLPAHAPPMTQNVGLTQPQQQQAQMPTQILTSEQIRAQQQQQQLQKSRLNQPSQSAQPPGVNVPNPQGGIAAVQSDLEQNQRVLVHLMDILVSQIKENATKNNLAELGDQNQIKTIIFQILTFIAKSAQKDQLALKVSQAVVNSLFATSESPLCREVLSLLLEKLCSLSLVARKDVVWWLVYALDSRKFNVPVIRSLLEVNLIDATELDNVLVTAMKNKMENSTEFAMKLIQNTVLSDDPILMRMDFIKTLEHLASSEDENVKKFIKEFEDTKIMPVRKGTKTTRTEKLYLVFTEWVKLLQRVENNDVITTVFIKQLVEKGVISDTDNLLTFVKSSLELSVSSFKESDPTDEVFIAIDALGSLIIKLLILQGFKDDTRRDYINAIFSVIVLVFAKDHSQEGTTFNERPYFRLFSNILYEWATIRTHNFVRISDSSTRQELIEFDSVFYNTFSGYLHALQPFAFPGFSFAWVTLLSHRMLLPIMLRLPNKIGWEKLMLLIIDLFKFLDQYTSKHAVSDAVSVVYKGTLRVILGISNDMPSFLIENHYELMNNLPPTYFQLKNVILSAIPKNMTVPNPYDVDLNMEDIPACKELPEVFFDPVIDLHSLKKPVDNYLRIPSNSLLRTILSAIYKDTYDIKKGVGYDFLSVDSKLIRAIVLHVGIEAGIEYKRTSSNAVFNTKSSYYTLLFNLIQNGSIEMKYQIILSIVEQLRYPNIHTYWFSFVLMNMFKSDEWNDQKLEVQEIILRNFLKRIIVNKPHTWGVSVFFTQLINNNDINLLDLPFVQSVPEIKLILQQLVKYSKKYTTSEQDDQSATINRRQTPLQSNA

TAP-tagged Dhh1 (from UniProt P39517) R55E; F62E; Q282E; N284E; R355E
ratio to parent: 0.44
